Data reported in patent publication US20240343831A1 (Regeneron, published 2024).

Legend:
mouse TMPRSS2-MMH [1] = biological target: T1, mouse TMPRSS2-MMH (mouse, UniProt Q9JIQ8 105-490); assay: SPR Biacore T200, 37 C, t½ at pH 7.4 over t½ at pH 6.0
T1 construct: extracellular domain; also called mTMPRSS2-MMH
Experimental: (§1) Dissociation rate constant (kd) for TMPRSS2 binding to purified anti-TMPRSS2 monoclonal antibody was determined using a real-time surface plasmon resonance based Biacore T200 biosensor platform. […] The CM5 Biacore sensor surface derivatized by amine coupling with an anti-human Fc specific mouse mAb was used to capture different anti-TMPRSS2 mAbs. All the TMPRSS2 reagents were expressed with a C-terminal myc-myc-hexahistidine tag (subsequently referred to as TMPRSS2-MMH).
(§2) Dissociation rate constants (kd) in two running buffers were determined by fitting the real-time binding sensorgrams to a 1:1 binding model using Scrubber 2.0c curve-fitting software.

[2] = biological target: T2, ectodomain of human TMPRSS2-myc-myc-His (human, UniProt O15393 106-492); assay: SPR Biacore T200, mAb captured by anti-human Fc, 25 C, HBS-P pH 7.4
T2 construct: extracellular domain; also called hTMPRSS2-MMH; human TMPRSS2-MMH
Experimental: (§3) The equilibrium dissociation constant (KD) for TMPRSS2 binding to different TMPRSS2 monoclonal antibodies (mAbs) was determined with a real-time surface plasmon resonance biosensor using a Biacore T200 instrument. All binding studies were performed in 10 mM HEPES, 150 mM NaCl, and 0.05% v/v Surfactant Tween-20, pH 7.4 (HBS-P) running buffer at 25° C. and 37° C. […] At the end of each cycle, the TMPRSS2 mAb captured surface was regenerated using a 12 sec injection of 20 mM phosphoric acid.
(§4) The association rate (kₐ) and dissociation rate (kd) were determined by fitting the real-time binding sensorgrams to a 1:1 binding model with mass transport limitation using Scrubber 2.0c curve-fitting software. Binding dissociation equilibrium constant (KD) and dissociative half-life (t½) were calculated from the kinetic rates as:

[3] = biological target: T2, ectodomain of human TMPRSS2-myc-myc-His; assay: SPR Biacore T200, mAb captured by anti-human Fc, 37 C, dissociation in PBS-T pH 7.4
Experimental: as §1, §2

[4] = biological target: T2, ectodomain of human TMPRSS2-myc-myc-His; assay: SPR Biacore T200, mAb captured by anti-human Fc, 37 C, HBS-P pH 7.4
Experimental: as §3, §4

[5] = biological target: T2, ectodomain of human TMPRSS2-myc-myc-His; assay: SPR Biacore T200, 37 C, t½ at pH 7.4 over t½ at pH 6.0
Experimental: as §1, §2

mouse TMPRSS2-MMH [6] = biological target: T1, mouse TMPRSS2-MMH; assay: SPR Biacore T200, mAb captured by anti-human Fc, 37 C, HBS-P pH 7.4
Experimental: as §3, §4

mouse TMPRSS2-MMH [7] = biological target: T1, mouse TMPRSS2-MMH; assay: SPR Biacore T200, mAb captured by anti-human Fc, 25 C, HBS-P pH 7.4
Experimental: as §3, §4

mouse TMPRSS2-MMH [8] = biological target: T1, mouse TMPRSS2-MMH; assay: SPR Biacore T200, mAb captured by anti-human Fc, 37 C, dissociation in PBS-T pH 7.4
Experimental: as §1, §2

[9] = biological target: Macaca fascicularis TMPRSS2-MMH (Macaca fascicularis); assay: SPR Biacore T200, mAb captured by anti-human Fc, 25 C, HBS-P pH 7.4
[10] = biological target: Macaca fascicularis TMPRSS2-MMH (Macaca fascicularis); assay: SPR Biacore T200, mAb captured by anti-human Fc, 37 C, dissociation in PBS-T pH 7.4
mouse TMPRSS2-MMH [11] = biological target: T1, mouse TMPRSS2-MMH; assay: SPR Biacore T200, mAb captured by anti-human Fc, 37 C, dissociation in PBS-T pH 6.0
Experimental: as §1, §2

[12] = biological target: T2, ectodomain of human TMPRSS2-myc-myc-His; assay: as above
Experimental: as §1, §2

[13] = biological target: Macaca fascicularis TMPRSS2-MMH (Macaca fascicularis); assay: SPR Biacore T200, mAb captured by anti-human Fc, 37 C, HBS-P pH 7.4
[14] = biological target: Macaca fascicularis TMPRSS2-MMH (Macaca fascicularis); assay: SPR Biacore T200, 37 C, t½ at pH 7.4 over t½ at pH 6.0
[15] = biological target: Macaca fascicularis TMPRSS2-MMH (Macaca fascicularis); assay: SPR Biacore T200, mAb captured by anti-human Fc, 37 C, dissociation in PBS-T pH 6.0

T1 sequence (Q9JIQ8 105-490): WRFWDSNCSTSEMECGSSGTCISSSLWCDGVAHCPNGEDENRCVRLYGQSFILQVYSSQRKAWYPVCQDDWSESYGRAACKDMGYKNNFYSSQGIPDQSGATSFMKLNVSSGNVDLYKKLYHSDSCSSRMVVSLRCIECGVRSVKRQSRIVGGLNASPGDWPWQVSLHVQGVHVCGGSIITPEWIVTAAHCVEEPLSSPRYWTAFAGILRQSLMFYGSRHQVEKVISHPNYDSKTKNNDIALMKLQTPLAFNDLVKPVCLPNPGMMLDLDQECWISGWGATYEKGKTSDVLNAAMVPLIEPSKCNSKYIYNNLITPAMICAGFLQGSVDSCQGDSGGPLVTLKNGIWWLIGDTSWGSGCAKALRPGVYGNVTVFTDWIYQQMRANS
T2 sequence (O15393 106-492): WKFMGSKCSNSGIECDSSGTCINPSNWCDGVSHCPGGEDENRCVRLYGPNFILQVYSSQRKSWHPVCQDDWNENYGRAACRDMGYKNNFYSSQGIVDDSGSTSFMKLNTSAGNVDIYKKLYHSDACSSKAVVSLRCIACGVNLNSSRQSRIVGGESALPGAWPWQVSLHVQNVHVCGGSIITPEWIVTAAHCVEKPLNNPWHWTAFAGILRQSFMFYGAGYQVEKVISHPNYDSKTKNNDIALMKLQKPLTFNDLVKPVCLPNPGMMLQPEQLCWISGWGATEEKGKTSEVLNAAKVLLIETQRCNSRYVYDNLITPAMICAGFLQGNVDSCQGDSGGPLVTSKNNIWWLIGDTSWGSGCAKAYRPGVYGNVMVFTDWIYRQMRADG

B1: mAb8029 (antibody, human IgG4 S228P, kappa, V domains shown)
VH: QLQLQESGPGLVKPSETLSLTCTVSGGSINSNSYYWGWIRQPPGKGLEWIGSIYYDRNTYYTPSLKSRVTISVDTSKNQFSLKLTSVTAADTAVYYCAREQVPGYYGMDVWGQGTTVTVSS
VL: DIQLTQSPSFLSASVGDRVTITCWASQGISRYLAWYQQKPGKTPKLLIYAASTLQSGVPSRFSGTGSGTDFTLTISNLQPEDFATYYCQQFDSYPWTFGQGTKVEIKR
notes: also called anti-TMPRSS2 mAb
t½ Ratio (pH 7.4/pH 6.0) (mouse TMPRSS2-MMH [1]): 1 | Kd [2]: 0.0592 nM | koff [2]: 0.000129 s⁻¹ | kon [2]: 2.18e+06 M⁻¹ s⁻¹ | t½ [2]: 89.5 min | koff [3]: 0.000624 s⁻¹ | t½ [3]: 19 min | Kd [4]: 0.216 nM | koff [4]: 0.000673 s⁻¹ | kon [4]: 3.12e+06 M⁻¹ s⁻¹ | t½ [4]: 17.2 min | t½ Ratio (pH 7.4/pH 6.0) [5]: 1 | Kd (mouse TMPRSS2-MMH [6]): 9.75 nM | koff (mouse TMPRSS2-MMH [6]): 0.00209 s⁻¹ | kon (mouse TMPRSS2-MMH [6]): 214000 M⁻¹ s⁻¹ | t½ (mouse TMPRSS2-MMH [6]): 5.5 min | Kd (mouse TMPRSS2-MMH [7]): 3.33 nM | koff (mouse TMPRSS2-MMH [7]): 0.000442 s⁻¹ | kon (mouse TMPRSS2-MMH [7]): 133000 M⁻¹ s⁻¹ | t½ (mouse TMPRSS2-MMH [7]): 26.2 min | koff (mouse TMPRSS2-MMH [8]): 0.00246 s⁻¹ | t½ (mouse TMPRSS2-MMH [8]): 5 min | 100 nM mfTMPRSS2-MMH Bound (RU) [9]: 66.7 RU | Kd [9]: 0.0609 nM | koff [9]: 0.000196 s⁻¹ | kon [9]: 3.2e+06 M⁻¹ s⁻¹ | t½ [9]: 59.1 min | 100 nm Ag Bound (RU) [10]: 90 RU | koff [10]: 0.000408 s⁻¹ | t½ [10]: 28 min | koff (mouse TMPRSS2-MMH [11]): 0.00257 s⁻¹ | t½ (mouse TMPRSS2-MMH [11]): 4 min | koff [12]: 0.000615 s⁻¹ | t½ [12]: 19 min | 100 nM mfMPRSS2-MMH Bound (RU) [13]: 35.3 RU | Kd [13]: 0.0758 nM | koff [13]: 0.000392 s⁻¹ | kon [13]: 5.17e+06 M⁻¹ s⁻¹ | t½ [13]: 29.5 min | t½ Ratio (pH 7.4/pH 6.0) [14]: 0.8 | 100 nm Ag Bound (RU) [15]: 94 RU | koff [15]: 0.000339 s⁻¹ | t½ [15]: 34 min

B2: mAb8021 (antibody, human IgG4 S228P, kappa, V domains shown)
VH: QVQLVQSGAEVKKPGASVRVSCKASGYTFTNYGITWVRQAPGQGLEWMGGISVYNGNTEYAEKFQGRVSMTTDTSTTTAYLELRSLKSDDTAVYFCARGQLDYFDPWGQGTLVTVSS
VL: EIVMTQSPATLSVSPGERATLSCRASQSVRSNLAWYQQKPGQAPSLLIYGASTRATGIPARFSGSGSGTEFTLTISSLQSEDFAVYFCLQYNNWWTFGQGTKVEIKR
notes: also called anti-TMPRSS2 mAb
Kd [2]: 0.0299 nM | koff [2]: 9.19e-05 s⁻¹ | kon [2]: 3.08e+06 M⁻¹ s⁻¹ | t½ [2]: 126 min | koff [3]: 0.000192 s⁻¹ | t½ [3]: 60 min | Kd [4]: 0.0627 nM | koff [4]: 0.000261 s⁻¹ | kon [4]: 4.17e+06 M⁻¹ s⁻¹ | t½ [4]: 44.2 min | t½ Ratio (pH 7.4/pH 6.0) [5]: 0.7 | 100 nM mfTMPRSS2-MMH Bound (RU) [9]: 63.4 RU | Kd [9]: 0.0252 nM | koff [9]: 0.000113 s⁻¹ | kon [9]: 4.48e+06 M⁻¹ s⁻¹ | t½ [9]: 102 min | 100 nm Ag Bound (RU) [10]: 71 RU | koff [10]: 0.000127 s⁻¹ | t½ [10]: 91 min | koff [12]: 0.000129 s⁻¹ | t½ [12]: 90 min | 100 nM mfMPRSS2-MMH Bound (RU) [13]: 36.7 RU | Kd [13]: 0.0141 nM | koff [13]: 0.000109 s⁻¹ | kon [13]: 7.71e+06 M⁻¹ s⁻¹ | t½ [13]: 106 min | t½ Ratio (pH 7.4/pH 6.0) [14]: 0.9 | 100 nm Ag Bound (RU) [15]: 70 RU | koff [15]: 0.000111 s⁻¹ | t½ [15]: 104 min
